Two proteins from publication PMC8980056, “RAGE-TXNIP axis drives inflammation in Alzheimer’s by targeting Aβ to mitochondria in microglia” (Cell Death & Disease, 2022) can be followed below.

Data set [1] concerns the molecule itself. The data set can be described thus: native gel or EMSA; western blot of native gel of Drp1 tetramer in LPS-primed primary microglia, without and with 4 h of Aβ dimers.
Data set [2] concerns the molecule itself. The data set can be described thus: native gel or EMSA; western blot of native gel of DRP1 tetramer in hippocampus of wt and 5xFAD mice (also with siTXNIP).

B1: Dynamin-Related Protein 1 (Drp1), endogenous in LPS-primed primary microglia (natural protein, UniProt Q8K1M6 1-736, looked up)
chain: MEALIPVINKLQDVFNTVGADIIQLPQIVVVGTQSSGKSSVLESLVGRDLLPRGTGVVTRRPLILQLVHVSPEDKRKTTGEENGVEAEEWGKFLHTKNKLYTDFDEIRQEIENETERISGNNKGVSPEPIHLKVFSPNVVNLTLVDLPGMTKVPVGDQPKDIELQIRELILRFISNPNSIILAVTAANTDMATSEALKISREVDPDGRRTLAVITKLDLMDAGTDAMDVLMGRVIPVKLGIIGVVNRSQLDINNKKSVTDSIRDEYAFLQKKYPSLANRNGTKYLARTLNRLLMHHIRDCLPELKTRINVLAAQYQSLLNSYGEPVDDKSATLLQLITKFATEYCNTIEGTAKYIETSELCGGARICYIFHETFGRTLESVDPLGGLNTIDILTAIRNATGPRPALFVPEVSFELLVKRQIKRLEEPSLRCVELVHEEMQRIIQHCSNYSTQELLRFPKLHDAIVEVVTCLLRKRLPVTNEMVHNLVAIELAYINTKHPDFADACGLMNNNIEEQRRNRLARELPSAGSRDKSSKVPSALAPASQEPPPAASAEADGKLIQDNRRETKNVPSAGGGIGDGGQEPTTGNWRGMLKTSKAEELLAEEKSKPIPIMPASPQKGHAVNLLDVPVPVARKLSAREQRDCEVIERLIKSYFLIVRKNIQDSVPKAVMHFLVNHVKDTLQSELVGQLYKSSLLDDLLTESEDMAQRRKEAADMLKALQGASQIIAEIRETHLW
notes: Dynamin-Related Protein 1 (Drp1), endogenous in primary microglia; Precipitated with an anti-Drp1 antibody; seen as tetramer on a native gel; Mouse is only surmised for the primary microglia; see the supplementary methods; source: endogenous, LPS-primed primary microglia lysate
In the case of B1, in data set [1], the “stoichiometry N” value turned out to be 4.

B2: Dynamin-Related Protein 1 (Drp1), endogenous in mouse hippocampus (natural protein, UniProt Q8K1M6 1-736, looked up)
chain: MEALIPVINKLQDVFNTVGADIIQLPQIVVVGTQSSGKSSVLESLVGRDLLPRGTGVVTRRPLILQLVHVSPEDKRKTTGEENGVEAEEWGKFLHTKNKLYTDFDEIRQEIENETERISGNNKGVSPEPIHLKVFSPNVVNLTLVDLPGMTKVPVGDQPKDIELQIRELILRFISNPNSIILAVTAANTDMATSEALKISREVDPDGRRTLAVITKLDLMDAGTDAMDVLMGRVIPVKLGIIGVVNRSQLDINNKKSVTDSIRDEYAFLQKKYPSLANRNGTKYLARTLNRLLMHHIRDCLPELKTRINVLAAQYQSLLNSYGEPVDDKSATLLQLITKFATEYCNTIEGTAKYIETSELCGGARICYIFHETFGRTLESVDPLGGLNTIDILTAIRNATGPRPALFVPEVSFELLVKRQIKRLEEPSLRCVELVHEEMQRIIQHCSNYSTQELLRFPKLHDAIVEVVTCLLRKRLPVTNEMVHNLVAIELAYINTKHPDFADACGLMNNNIEEQRRNRLARELPSAGSRDKSSKVPSALAPASQEPPPAASAEADGKLIQDNRRETKNVPSAGGGIGDGGQEPTTGNWRGMLKTSKAEELLAEEKSKPIPIMPASPQKGHAVNLLDVPVPVARKLSAREQRDCEVIERLIKSYFLIVRKNIQDSVPKAVMHFLVNHVKDTLQSELVGQLYKSSLLDDLLTESEDMAQRRKEAADMLKALQGASQIIAEIRETHLW
notes: Dynamin-Related Protein 1 (Drp1), mouse, endogenous in the hippocampus of 5xFAD mice; Tetramer seen on a native gel; source: endogenous, hippocampus of 5xFAD mice
For the protein B2, the “stoichiometry N” value in data set [2] was 4.
